Test results taken from the RNAGym collection of RNA variant scans (doi:10.1093/molbev/msab373).

B1: Azoarcus group I ribozyme (parent)
chain: GUGCCUUGCGCCGGGAAACCACGCAAGGGAUGGUGUCAAAUUCGGCGAAACCUAAGCGCCCGCCCGGGCGUAUGGCAACGCCGAGCCAAGCUUCGGCGCCUGCGCCGAUGAAGGUGUAGAGACUAGACGGCACCCACCUAAGGCAAACGCUAUGGUGAAGGCAUAGUCCAGGGAGUGGCGAAAGUCACACAAACCGG

Variants of: B1
Experiment: reverse-splicing fitness (ratio to wild type); higher = more active; in vitro selection; Mg2+ level not given
How it was run: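 An in vitro group I ribozyme library with randomized positions was T7-transcribed and gel-purified. In triplicate, 10 pmol RNA in EPPS pH 7.5 was reacted with 50 pmoles of a 30-nt RNA substrate for 1 h at 37 °C across several added MgCl2 levels (1–48 mM), then stopped with EDTA. Products were reverse transcribed from a substrate-complementary primer, PCR-amplified and sequenced (HiSeq 4000). Fitness is a variant's read proportion after selection over that before, normalised to wild type.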

Row | Variant | reverse-splicing fitness
1 | C82A A111U A120G C150A U176G | 0.0101
2 | C82A A111U A120C A145U C169G | 0.0114
3 | C82A A111U A120C A145U C169U | 0.0129
4 | C82A A111U A120G A145U C169G | 0.00975
5 | C82A A111U A120G A145U C169U | 0.00974
6 | C82A A111U A120G A145U C169A | 0.00877
7 | C82A A111U A120U A145C C150A | 0.00524
8 | C82A A111U A120G A145C C150A C169A U176G | 0.00551
9 | C82A A111U A120G A145C C150A C169A U176A | 0.0128
10 | C82A A111U A120G A145C C150A C169A U176C | 0.00664
11 | C82A A111U A120G A145C C150U C169U U176C | 0.0127
12 | C82A A111U A120G A145C C150U C169U U176G | 0.00596
13 | C82A A111U A120G A145C C150U C169U U176A | 0.0202
14 | C82A A111U A120G A145G C150A C169A U176G | 0.00817
15 | C82A A111U A120G A145G C150A C169A U176A | 0.0191
16 | C82A A111U A120G A145G C150A C169A U176C | 0.0248
17 | C82A A111U A120C A145U C169A U176G | 0.00804
18 | C82A A111U A120G A145C C150A U176C | 0.0098
19 | C82A A111U A120G A145C C150A U176G | 0.00549
20 | C82A A111U A120G A145C C150A U176A | 0.00932
21 | C82A A111U A120C C150U C169A U176G | 0.00841

Row | Variant | reverse-splicing fitness
22 | C82A A111U A120C C150U C169A U176C | 0.0174
23 | C82A A111U A120C C150U C169A U176A | 0.0162
24 | C82A A111U A120G C169U U176G | 0.00615
25 | C82A A111U A120G C169U U176A | 0.0201
26 | C82A A111U A120G C169U U176C | 0.0195
27 | C82A A111U A120G A145U C150G C169G U176A | 0.00656
28 | C82A A111U A120G A145U C150G C169G U176C | 0.00476
29 | C82A A111U A120G A145U C150G C169G U176G | 0.00488
30 | C82A A111U A120G C150A C169G U176C | 0.0227
31 | C82A A111U A120G C150A C169G U176G | 0.0059
32 | C82A A111U A120G C150A C169G U176A | 0.0215
33 | C82A A111U A120G A145C C169U U176C | 0.0136
34 | C82A A111U A120G A145C C169U U176G | 0.00478
35 | C82A A111U A120G A145C C169U U176A | 0.0212
36 | C82A A111U A120G A145U C150U C169A U176C | 0.0139
37 | C82A A111U A120G A145U C150U C169A U176G | 0.0057
38 | C82A A111U A120G A145U C150U C169A U176A | 0.0139
39 | C82A A111U A120G C150A C169U U176G | 0.00816
40 | C82A A111U A120G C150A C169U U176C | 0.02
41 | C82A A111U A120G C150A C169U U176A | 0.021
42 | C82A A111U A120G C150U C169A U176G | 0.00525

Row | Variant | reverse-splicing fitness
43 | C82A A111U A120G C150U C169A U176C | 0.0163
44 | C82A A111U A120G C150U C169A U176A | 0.0156
45 | C82A A111U A120C C150G U176C | 0.0098
46 | C82A A111U A120C C150G U176G | 0.00421
47 | C82A A111U A120C C150G U176A | 0.00671
48 | C82A A111U A120G A145U C150A U176G | 0.00656
49 | C82A A111U A120G A145U C150A U176A | 0.0128
50 | C82A A111U A120G A145U C150A U176C | 0.0152
51 | C82A A111U A120G A145G C150A | 0.0095
52 | C82A A111U A120G A145G C150U | 0.0133
53 | C82A A111U A120G A145G C150G | 0.00699
54 | C82A A111U A120G A145U C169G U176C | 0.014
55 | C82A A111U A120G A145U C169G U176G | 0.00437
56 | C82A A111U A120G A145U C169G U176A | 0.0119
57 | C82A A111U A120G A145C C150G C169G U176A | 0.00863
58 | C82A A111U A120G A145C C150G C169G U176G | 0.00452
59 | C82A A111U A120G A145C C150G C169G U176C | 0.00725
60 | C82A A111U A120C C150A U176C | 0.0239
61 | C82A A111U A120C C150A U176A | 0.0129
62 | C82A A111U A120C C150A U176G | 0.00881
63 | C82A A111U A120C C150U U176G | 0.00805

Row | Variant | reverse-splicing fitness
64 | C82A A111U A120C C150U U176A | 0.0125
65 | C82A A111U A120C C150U U176C | 0.022
66 | C82A A111U A120G C150G C169A U176C | 0.00965
67 | C82A A111U A120G C150G C169A U176G | 0.00672
68 | C82A A111U A120G C150G C169A U176A | 0.0106
69 | C82A A111U A120G A145G C150G U176G | 0.00604
70 | C82A A111U A120G A145G C150G U176C | 0.0105
71 | C82A A111U A120G A145G C150G U176A | 0.00704
72 | C82A A111U A120G A145U C169U U176C | 0.0159
73 | C82A A111U A120G A145U C169U U176A | 0.0196
74 | C82A A111U A120G A145U C169U U176G | 0.0047
75 | C82A A111U A120C C150U C169G U176G | 0.00747
76 | C82A A111U A120C C150U C169G U176A | 0.0159
77 | C82A A111U A120C C150U C169G U176C | 0.0205
78 | C82A A111U A120G A145C C169G U176C | 0.0184
79 | C82A A111U A120G A145C C169G U176G | 0.00418
80 | C82A A111U A120G A145C C169G U176A | 0.0247
81 | C82A A111U A120G A145C C150A C169A | 0.00789
82 | C82A A111U A120G A145C C150A C169G | 0.00858
83 | C82A A111U A120G A145C C150A C169U | 0.00834
